Kd data for three molecules are collected here from patent publication US20240117018A1 (UNIVERSITY OF MARYLAND BALTIMORE, published 2024).

Numbering of substitutions follows the chain as printed. Read-outs that look alike come from different tables or passages of the source.

In experiment [1] the target is monomeric HIV-1 Ba-L gp120 (HIV-1 Ba-L).
The target is the same in experiment [2]. This is another data set of the same source.
Experiment [3] shares this target. This is another data set of the same source.

B1: N49P7 (antibody)
heavy: not shown
light: QSALTQPRSVSASPGQSVTISCTGTHNLVSWCQHQPGRAPKLLIYDFNKRPSGVPDRFSGSGSGGTASLTITGLQDDDDAEYFCWAYEAFGGGTKLTVLGQPKAAPSVTLFPPSSEELQANKATLVCLISDFYPGAVTVAWKADSSPVKAGVETTTPSKQSNNKYAASSYLSLTPEQWKSHRSYSCQVTHEGSTVEKTVAPTECS
The term Kd denotes the concentration at which binding is half-saturated. Higher therefore signals a looser complex. Turning to B1, the affinity in experiment [1], expressed as Kd, was 0.86 nM.

B2: N49P7.1 (antibody)
heavy: not shown
light: B1 light with G100R
Turning to B2, binding in experiment [2] was put at a Kd of 1.14 nM.

B3: N49P11 (antibody, V domains shown)
V domain 1: SAELVQSGAVVKKPGTSVKVSCQAYGYTFTDYLIHWLRQAPGQGLEWMGWMNPVYGQVNYAQNFQGRVSMTRDIYRETAFLEVRDLKTDDTGTYYCVRDTGDGSRRHFDSINWFLDLWGRGTWIRVAP
V domain 2: QCVLTQPRSVSGSPGQSVTISCTGTHNYVSWCQHHPGNAPKLLLYDFDKRPSGISDRFSGSRSGNTASLTISGLQPEDEADYFCWAFEAFGGGTKVLVLR
In experiment [3], B3 showed a Kd of 15.6 nM.
